Residue numbers refer to the chain shown, from its start. In names and notes the source's numbering stands. Read-outs that look alike come from different tables or passages of the source.
Key:
Format in all cases: biochemical
[1] = PASC assay, cellobiose dose-response (Example 1); conditions: FIG. 3
Description: This assay measures the activity of CBH I using PASC as the substrate. During the assay, the concentration of PASC is monitored by a fluorescent signal derived from calcofluor binding to PASC (ex/em 365/440 nm). The assay is initiated by mixing enzyme (15 μl) and reaction buffer (85 μl of 0.2% PASC, 200 mM MES, pH 6), and then incubating at 35° C. while shaking at 225 RPM. After 2 hours, one reaction volume of calcofluor stop solution (100 μg/ml in 500 mM glycine pH 10) is added and fluorescence read-outs obtained (ex/em 365/440 nm).
(§1) Tolerance to cellobiose (or inhibition caused by cellobiose) was tested in two ways in the CBH I assays. A direct-dose tolerance method can be applied to all of the CBH I assays (i.e., 4-MUL, PASC, and/or bagasse assays), and entails the exogenous addition of a known amount of cellobiose into assay mixtures. A different indirect method entails the addition of an excess amount of β-glucosidase (BG) to PASC and bagasse assays (typically, 1 mg β-glucosidase/g solids loaded). BG will enzymatically hydrolyze the cellobiose generated during these assays; therefore, CBH I activity in the presence of BG can be taken as a measure of activity in the absence of cellobiose. Furthermore, when activity in the presence and absence of BG are similar, this indicates tolerance to cellobiose.

[2] = 4-MUL assay with and without cellobiose (Example 1)
[3] = Saccharification assay (bagasse assay) with and without β-glucosidase (Example 1); conditions: T. reesei CBH I variants; activity without β-glucosidase (BG) relative to with BG
Description: This assay measures the activity of CBH I on bagasse, a lignocellulosic substrate. Reactions were run in 10 ml vials with 5% dilute acid pretreated bagasse (250 mg solids per 5 ml reaction). Each reaction contained 4 mg CBH I enzyme/g solids, 200 mM MES pH 6, kanamycin, and chloramphenicol. Reactions were incubated at 35° C. in hybridization incubators (Robbins Scientific), rotating at 20 RPM. Time points were taken by transferring a sample of homogenous slurry (150 μl) into a 96-well deep well plate and quenching the reaction with stop buffer (450 μl of 500 mM sodium carbonate, pH 10). Time point measurements were taken every 24 hours for 72 hours.
as §1

[4] = 4-MUL cellobiose tolerance/inhibition assay, dose-response IC50 (Example 2); conditions: CBH I levels normalized to 5 μg/mL
Summary of the method: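 CBH I variant supernatants (5 μg/mL final, or undiluted if lower) on 0.5 mM 4-MUL in 100 mM MES pH 6 with 25 mM gluconolactone, fluorescence ex/em 365/450 nm. Activity measured at 6–8 cellobiose levels up to 100 mM; IC50 from four-parameter fit, bottom constrained to knockout background.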

B1: wild type T. reesei CBH I: wild type T. reesei CBH I (SEQ ID NO:2) (protein, listed as Trichoderma reesei)
chain: MYRKLAVISAFLATARAQSACTLQSETHPPLTWQKCSSGGTCTQQTGSVVIDANWRWTHATNSSTNCYDGNTWSSTLCPDNETCAKNCCLDGAAYASTYGVTTSGNSLSIGFVTQSAQKNVGARLYLMASDTTYQEFTLLGNEFSFDVDVSQLPCGLNGALYFVSMDADGGVSKYPTNTAGAKYGTGYCDSQCPRDLKFINGQANVEGWEPSSNNANTGIGGHGSCCSEMDIWEANSISEALTPHPCTTVGQEICEGDGCGGTYSDNRYGGTCDPDGCDWNPYRLGNTSFYGPGSSFTLDTTKKLTVVTQFETSGAINRYYVQNGVTFQQPNAELGSYSGNELNDDYCTAEEAEFGGSSFSDKGGLTQFKKATSGGMVLVMSLWDDYYANMLWLDSTYPTNETSSTPGAVRGSCSTSSGVPAQVESQSPNAKVTFSNIKFGPIGSTGNPSGGNPPGGNPPGTTTTRRPATTTGSSPGPTQSHYGQCGGIGYSGPTVCASGTTCQVLNPYYSQCL
IC50 of cellobiose (PASC assay) [1]: 3000 µg/mL
cellobiose concentration at which inhibition starts (PASC assay) [1]: around 1 g/L
% activity remaining in 4-MUL assay in the presence of cellobiose ([2]; T. reesei CBH I and R268/R411 variants, 250 mg/L cellobiose): 23%

B2: R268A/R411K: T. reesei CBH I with R268A and R411K substitutions (protein, UniProt P62694 18-513, looked up, variant R268A R411K)
Exoglucanase 1: QSACTLQSETHPPLTWQKCSSGGTCTQQTGSVVIDANWRWTHATNSSTNCYDGNTWSSTLCPDNETCAKNCCLDGAAYASTYGVTTSGNSLSIGFVTQSAQKNVGARLYLMASDTTYQEFTLLGNEFSFDVDVSQLPCGLNGALYFVSMDADGGVSKYPTNTAGAKYGTGYCDSQCPRDLKFINGQANVEGWEPSSNNANTGIGGHGSCCSEMDIWEANSISEALTPHPCTTVGQEICEGDGCGGTYSDNAYGGTCDPDGCDWNPYRLGNTSFYGPGSSFTLDTTKKLTVVTQFETSGAINRYYVQNGVTFQQPNAELGSYSGNELNDDYCTAEEAEFGGSSFSDKGGLTQFKKATSGGMVLVMSLWDDYYANMLWLDSTYPTNETSSTPGAVKGSCSTSSGVPAQVESQSPNAKVTFSNIKFGPIGSTGNPSGGNPPGGNRGTTTTRRPATTTGSSPGPTQSHYGQCGGIGYSGPTVCASGTTCQVLNPYYSQCL
Tolerance to 250 mg/L cellobiose % Activity in 4-MUL Assay (+/−Cellobiose) ([2]; T. reesei CBH I variants, activity with 250 mg/L cellobiose relative to without cellobiose): 97%
Tolerance to cellobiose accumulation % Activity in Bagasse Assay (+/−BG) [3]: 94%

B3: R411K: T. reesei CBH I with an R411K substitution (protein, UniProt P62694 18-513, looked up, variant R411K)
Exoglucanase 1: B2 Exoglucanase 1 with A251R
Tolerance to cellobiose accumulation % Activity in Bagasse Assay (+/−BG) [3]: 89%
IC50 ([4]; Secondary screening, cellobiose range 0.00085-100 mM, read-out: IC50): 3060 µM
IC50 ([4]; secondary screening, cellobiose range 0.0001-100 mM, read-out: Average IC50): 2080 µM

Reference: patent US20140287471A1, “VARIANT CBH I POLYPEPTIDES WITH REDUCED PRODUCT INHIBITION” (BP CORPORATION NORTN AMERICA INC., priority 2011, published 2014)
